In assay [1] the target is TF-FVIIa complex in the PT assay (full length TF on 293 cell membranes with the Factor VII/VIIa of normal … (human, UniProt P08709)). The assay can be described thus: cell-based or functional assay.
The target in assay [2] is human activated protein C (human, UniProt P04070). The assay can be described thus: chromogenic enzyme inhibition assay, apparent Ki*.
In the next assay the target is human thrombin (human, UniProt P00734). The assay can be described thus: chromogenic enzyme inhibition assay, apparent Ki*.
In the next assay the target is human Factor Xa (human, UniProt P00742). Nature of the assay: chromogenic enzyme inhibition assay, apparent Ki*.
The target of another assay is T1, human Factor XIIa (human, UniProt P00748).
T1 sequence 1: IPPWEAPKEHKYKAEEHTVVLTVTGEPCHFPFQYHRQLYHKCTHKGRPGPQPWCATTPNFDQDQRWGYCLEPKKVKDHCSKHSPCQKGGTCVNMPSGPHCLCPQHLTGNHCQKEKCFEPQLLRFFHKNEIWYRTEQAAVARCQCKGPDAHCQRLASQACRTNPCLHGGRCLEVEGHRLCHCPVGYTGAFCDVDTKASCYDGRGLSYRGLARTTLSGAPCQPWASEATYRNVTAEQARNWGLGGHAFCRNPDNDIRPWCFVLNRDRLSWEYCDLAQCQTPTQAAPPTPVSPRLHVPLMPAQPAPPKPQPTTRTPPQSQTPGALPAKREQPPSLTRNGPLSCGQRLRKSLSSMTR
T1 sequence 2: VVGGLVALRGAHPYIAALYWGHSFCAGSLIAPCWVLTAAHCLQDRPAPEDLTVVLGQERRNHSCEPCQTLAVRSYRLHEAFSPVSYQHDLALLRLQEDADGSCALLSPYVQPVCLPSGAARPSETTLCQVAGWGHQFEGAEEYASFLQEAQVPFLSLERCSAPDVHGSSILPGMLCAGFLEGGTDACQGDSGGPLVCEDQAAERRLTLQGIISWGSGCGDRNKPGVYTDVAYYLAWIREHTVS
The assay can be described thus: chromogenic enzyme inhibition assay, apparent Ki*.

Another assay concerns the target human plasma kallikrein (human, UniProt P03952). Nature of the assay: chromogenic enzyme inhibition assay, apparent Ki* (value in FIG. 4). As for the experimental part:
(§1) Aliquots (25 μL) from each well of a microtiter plate containing the serially diluted inhibitors were transferred into new microtiter plates, each containing a different protease (100 μL) in the appropriate buffer. The proteases tested (protease concentration, buffer, substrate) were FVIIa (10 nM, Buffer A, 0.7 mM S2366), FXIa (1.0 nM, Buffer B containing 1 mg/ml BSA, 0.7 mM S2366), plasma kallikrein (3.5 nM, Buffer B, 0.5 mM S2302), and plasmin (15 nM, Buffer B, 1 mM S2251). Buffer A contains 50 mM Tris, pH 7.5, 100 mM NaCl, 10 mM CaCl_2, 0.5% BSA, 60 nM TF_1-243, and 1 mM CHAPS (Sigma). Buffer B contains 50 mM Tris, pH 7.5, 100 mM NaCl, 2 mM CaCl_2 and 0.005% Triton X-100.

The next assay addresses human plasmin (human, UniProt P00747). The assay can be described thus: chromogenic enzyme inhibition assay (plasmin 15 nM, S2251), apparent Ki*. The method, then:
as §1

No end group written: not given here.

These results are taken from patent US5834244, “Factor VIIa inhibitors from Kunitz domain proteins” (Genentech, Inc., dated 1998).

B1: IV-32B (designed binder)
chain: VREVCSEQAEPGPCKALMKRWYFDVTEGKCAPFYYGGCYGNRNNFDTEEYCAAVCGSA
For B1, the “fold prolongation of clotting time, PT assay in normal human plasma” value (“fold prolongation of clotting time” below) in assay [1] is 1.4 fold prolongation at 40 µM inhibitor.

B2: APPI, Alzheimer's amyloid β-protein precursor inhibitor (other)
chain: VREVCSEQAETGPCRAMISRWYFDVTEGKCAPFFYGGCGGNRNNFDTEEYCMAVCGSA
modifications: not fully specified (bridges); ends and bridges not checked
Take B2: in assay [1], the “fold prolongation of clotting time” value is 1.5 fold prolongation at 40 µM inhibitor. In addition, the Ki (in assay [2]; with human thrombin; with human Factor Xa; in the assay with human Factor XIIa) was greater than 10 µM each time. Moreover, the binding result (in assay [2]; in the assay with human thrombin; in the assay with human Factor Xa; with human Factor XIIa) was “no binding (tested: >10 µM)” each time.

B3: TF7I-C (designed binder)
chain: VREVCSEQAEPGPCRALILRWYFDVTEGKCAPFFYGGCYGNRNNFDTEEYCAAVCGSA
modifications: ends and bridges not checked; cysteine pairing not given here
For B3, the binding result in assay [2] is listed as “no binding (tested: >10 µM)”; with human Factor XIIa it was “no binding (tested: >10 µM)”; in the assay with human plasma kallikrein, “binds”. In addition, the Ki with human plasmin amounted to 0.04 µM.

B4: IV-54C (designed binder)
chain: VREVCSEQAEPGPCRALMKRWYFDVTEGKCAPFVYGGCYGNRNNFDTEEYCAAVCGSA
In the case of B4, the “fold prolongation of clotting time” value in assay [1] was 2.1 fold prolongation at 40 µM inhibitor.

B5: IV-49C (designed binder)
chain: VREVCSEQAEPGPCRALMKRWYFDVTEGKCAPFIYGGCYGNRNNFDTEEYCAAVCGSA
Consider B5, for which the “fold prolongation of clotting time” value in assay [1] is 2.5 fold prolongation at 40 µM inhibitor.
